# Experimental data as given in the DeepSol protein solubility set.
# Experiment: soluble on expression in E. coli; label from the status in PepcDB or PDB records
row,Sequence,soluble on expression in E. coli
1,MPRYLGLMSGTSLDGMDIVLIEQGDRTTLLASHYLPMPAGLREDILALCVPGPDEIARAAEVEQRWVALAAQGVRELLLQQQMSPDEVRAIGSHGQTIRHEPARHFTVQIGNPALLAELTGIDVVADFRRRDVAAGGQGAPLVPAFHQALFGDDDTSRAVLNIGGFSNVSLLSPGKPVRGFDCGPGNVLMDAWIHHQRGEHFDRDGAWAASGQVNHALLASLLADEFFAARGPKSTGRERFNLPWLQEHLARHPALPAADIQATLLELSARSISESLLDAQPDCEEVLVCGGGAFNTALMKRLAMLMPEARVASTDEYGIPPAWMEGMAFAWLAHRFLERLPGNCPDVTGALGPRTLGALYPA,not soluble
2,MPSMAEIYVKELRERDPATVDTLFLDNAEDGQIGGLTDQLINLEMLSMVKCGLTTLAGFPTLPALTYLDISDNQLGDNASFDVLVKNAPDLKKITLASNKLSLDNLRCLKVLPNLFELDLSNNPSLGLLEDYREKMFEMIPSLKILDGCDVDGEEVEEEFAGEGGEDSEEGSGDEDGPGLSYLEKSQFSDDETDDYAPEGGDAEPRGTKRGASDNGEEPDNKKAAGDDE,soluble
3,MPSNTSIRSNSNAIKARAPASAPKRPTSAEYVKKYTEYLATGHQIRHALQRLYDLNCSIQVFEECLTEKVILQKYTGQSEYQYPVTLLMNKFDDLRKREIRVANEKWSKNGELSAAMFTNKMVMEQRMKDLEKMDQKTANNLFVAALGDSCFIPKKKVDYSKFKITKRSKSSTSTSPSSSSSETSSPIA,not soluble
4,MPSSIYRYETIQVAGRGAFGLVVIARDTLTSKRVAIKRIMVPNVSKVSLAREISCLRNLHHRNILKLLDCFPSADLMSIVTEEVPYTLGDIIKDKTRPKTEQFNRWYYTQILSGIAYLHSKEIMHRDIKPENILVTSRNVVKIADFGQACFYMPKDPNQEYDVNVATRWYRAPELLFGSKKYKPDVDIWAIGCILAELVRGKPIFPGRSELEQISIIFGVLGTPNEDNWPNWRTMPDANKLLFEPKEPRNNWTEILLCKEISNNFTEFLGSHLQFFKRLKASELLKEPWIKQGLPLVEPNYRISKKSTRRNQRDALPPLHVFL,not soluble
5,MPTWEELYKNAIEKAIKSVPKVKGVLLGYNTNIDAIKYLDSKDLEERIIKAGKEEVIKYSEELPDKINTVSQLLGSILWSIRRGKAAELFVESCPVRFYMKRWGWNELRMGGQAGIMANLLGGVYGVPVIVHVPQLSRLQANLFLDGPIYVPTLENGEVKLIHPKEFSGDEENCIHYIYEFPRGFRVFEFEAPRENRFIGSADDYNTTLFIREEFRESFSEVIKNVQLAILSGLQALTKENYKEPFEIVKSNLEVLNEREIPVHLEFAFTPDEKVREEILNVLGMFYSVGLNEVELASIMEILGEKKLAKELLAHDPVDPIAVTEAMLKLAKKTGVKRIHFHTYGYYLALTEYKGEHVRDALLFAALAAAAKAMKGNITSLEEIREATSVPVNEKATQVEEKLRAEYGIKEGIGEVEGYQIAFIPTKIVAKPKSTVGIGDTISSSAFIGEFSFTL,soluble
6,MPTYPPSLLQSLLQYIPERELAWDCGAGSGQLTHMLASYFDQVVGTDISQTQLSHAEYYDNISYQLQPAENTTFPDHCFDLITVAQAIHWFDFEAFYAEVRRTIKPSGILAVVGYGLIHVDDLEINAKVQHLYHQTLNGFWDAERHYVDELYQTIPFPFDEIEMPAFQIEAQWTLQQLLQYLNTWSAVQHYILEKNLDPVQQLLSKGLEHHHHHH,not soluble
7,MPVLYKPFQSNLEDKKSGKKLFYPHVVRTGNINSAQLSKEIAAYSSLSPGDVKNTLDNLVTVMAQHLQSSESVSVDGLGTFRMVMSARGRGVETADEVSAAQATLTVRFQPTTTKNLDRTTATRSMVTGAKCARYDKLVSAPGDGGSVDDPNDKPGGGSDGGDDGEAPDPTV,not soluble
8,MPYIIPTFEEIRAAILRDVKNLLPDADTGPDSDAFIRASSTASAVYGLYQHQLWMARQILPDTADTAYLESHAALRGITRKPATKATGTLTLTGTPGAAVPAGTEARHIATGATFRTTATVTLAENGTASAPCEASVAGAMPDYTAETVLLTAPPPGVQSTASLALTGGTDTETDAELLERLLFHFRNPPGGGNRYDYKRWALEVPGVTGAWVYPLRRGLGTVDVAVLSAGGLPTPELLAAAQARIDERRPVACKDARVLAPTPLAVDVRVRVRLAGTTLPVVTTQVREALAAHFGGYEPGGQVVRSRLEAIISGIPGVADRDLTAPSANVQAVVDASRVEWPRLGTVTVEAMLEHHHHHH,soluble
9,MQAAITVAIPILYKDSVSCSHAESEHFSGTGVTVIIFEVGRDCMKYSFLRQINACVCFDQYEEMEGLLCNGLYMFFIQYTPTILRGDLFAF,not soluble
10,MQAHQSLHPSSAYLLDPRDTHHFIRKPTISMETTTEIPAGGATSLLPIVRAAKTPPIPLTVPCAIAGVMMEFECLLRGKRMLVNAMVYNVKTTIAGHPWE,not soluble
11,MQAINPNWNVPKNIHAFTTTREGGVSLAPYLSFNLGDHVGDNKSAVKTNRTLLVEKFGLPQTPIFLTQTHSTRVIQLPYSGQNLEADAVYTNVPNQVCVVMTADCLPVLFTTTSGNEVAATHAGWRGLCDGVLEETVKYFQAKPEDIIAWFGPAIGPKAFQVGIDVVEKFVVVDEKAKLAFQPDAIEEGKYLSNLYQIATQRLNNLGITQIYGGNHCTFNEKEKFFSYRRDNQTGRMASVIWFE,not soluble
12,MQALAAMPAPVAASVRIVLTDIDDTLTTEGRLPAGAYAALERLEQAGIVVVPITGRPAGWCDHIARMWPVRAVVGENGAFYYAYDRSARRMNAHYWADAATRAANRQALQAIRERVLREVPGTAVASDQDYRVADLAIDFCEDVPALPDSAVGRIVEIFHEAGAQAKVSSIHVNGWFGDYDKLTMTRTLFEREFGLSIDSALQHTLFIGDSPNDEPMFKFFPISVGVANIQSQLHRIQHRPAFVAAARGGDGFVEMAERLLANRG,not soluble
13,MQARRYLLRPAARLRRSRRIATAAPERLWLFDLDNTLHDTSHAIFPLIDRGMTEAVAETLAVDEATANRLRAEYWRRYGATVIGLVRHHGVDADAFLHRSHNFEVAPLVRAETALADKLRRLPGRKVLLTNAPLHYARAVLRHLGLLRQFDSIWAIEQMCMHGQFRPKPSDALLRYVLAREGVPAARAVLIEDTLDNLRSARRVGLRTVHVFHPGTPFARGHRQRPGYVDLRVNSVSDLLLRRRPLRG,not soluble
14,MQARWIGNMMFHVRTDSNHDVLMDTKEEVGGKDAAPRPLELVLTGLMGCTGMDVVSILRKMKVIDQMKDFRIEIEYERTEEHPRIFTKVHLKYIFKFDGEPPKDKVEKAVQLSQEKYCSVSAILKCSSKVTYEIVYEN,not soluble
15,MQDEFDLFRTETKGIKPIKQDTFVAPRQKRDQKKIELKELRAKEDTLFYFSDEYEPLLNDNDGVVKYLRDGEDSHLLKQLRRGDFSPELFLDLHGLTREQAKQELAALLLACENEHVDCASIMTGYGTFTLKKQIPRWLVQHPKVRALHQAPREWGGEAAILILVDL,soluble
16,MQDLGEVEEDPTELRIDVRHGFDTGPMNVQIAQLMQLATGRRRAPRQSSGSGIQLKIGGRIEVLSYQRKMHEAMKYLLGRLFGGKTVKVNHLAIGCKTILRIPTSFKLHVENLEILDTNTYNNMETVRLMIEASSLPLNMVKFRPTNFTTNNHPIVRTARMLYIHATSTRRRFRDFIEALARLKNIRVHVESRDLSSGSWYMTVFRCWMRYGKKVGTYYTFGTTEETINSAMKVFGRLYGSRTGFDGQITINLKKTSQVVIRKVQQENEWILGMKVESR,not soluble
17,MQETMLDLRTVYECNRCLGCKTLHPQVGIINLENPSLEEDAVKFEFYAVLLIEDCPGGCCCCGRKYYDYSNATMVFLTPGEIFRMSKENTLPDKGYLLAFHPDLLFRTSLKNHIKNYTFFHYRKEEALHLSRRETEKVTCCLSNIEDELHHPIDTHSSIILSRHIELLLDYCTRYYERQFITRENKNKALLENMERLFVEYIASGRLQGGKLPTSGYMAGELDLSVAYFDDLLKFETGKTLEEYLQLKRLDIARHMLLQDGHTPAAVARKLGYPNVQCFSVLFKKITGVAPSDYRLSQN,not soluble
18,MQEVHDYGAYLILDEYGGVRAFLPWSEIASRAVRNIHAVLKPRQKVVVKVIRVYKKRGQVDVSLKRVMDSEKKRKMMFYKRYLKAATLVELIAEKLGKSVDEAYREVLWKLEDAYGDPMKGLEAAVLQGREALEKAGVPEEWIEPLLETAKTHVRVKTVKITFYLTLRSMAGDGVERVRKVLEAAKSQIESFKDSKVVARIYTVGAPKYRVELQGYNYKTLEKALEKMVEAARKTASKLGVEFSFERED,soluble
19,MQFNAVLVKLLDELEVRLRAAQLWQATPPSSQALVSQEPFAVDTLLPHEWLQWIFLPKMQQAIAQNAVPRGFALEPYFSEVWQGEARYQAVLAVIQQIDKVCQ,not soluble
20,MQGEDRWADIREMNDRLIACERCPRLVEFRKAVVGRDKRFRGETYWARPVPGYGDINGRLLIVGLAPAASGGNRTGRVFTGDKSSDFLVSCLHEAGITNQPTSERRDDGLIYYDAYITAAVKCVPPDNKPLPEEIENCSVYLRSEIGFMKNLKVILVLGQIALQAVVRLIADPAEPRSRYRFVHGAVYSMNGIRVVCSYHPSPRNVNTGKLKRSDFVDLLKKVKEMALE,not soluble
21,MQGKIIKSLAGFYYVESEGQVYQTRARGNFRKRGETPYVGDIVDFSAEDNSEGYILAIHPRKNSLVRPPIVNIDQAVVIMSAKEPEFNSNLLDRFLILLEHKAIHPVVYISKMDLLDSPEEIKAIGRQYQAIGYDFVTSLEELLPLLADKITVFMGQTGVGKSTLLNRIAPELALEIGEISDSLGRGRHTTRAVSFYNTHGGKIADTPGFSSLDYDIANAEDLNEAFPELRRLSHECKFRSCTHTHEPKCAVKAALETGELWPVRYEHYLQFLSEIENRRETYKKVIKRK,not soluble
22,MQGYHHPLATNHQTQYGTVGQALHIARKLLPFIPDNAGILIVPCCRGGSAFTAGSEGTYSERHGASHDACRWGTDTPLYQDLVSRTRAALAKNPQNKFLGVCWMQGEFDLMTSDYASHPQHFNHMVEAFRRDLKQYHSQLNNITDAPWFCGDTTWYWKENFPHSYEAIYGNYQNNVLANIIFVDFQQQGERGLTNAPDEDPDDLSTGYYGSAYRSPENWTTALRSSHFSTAARRGIISDRFVEAILQFWRER,not soluble
23,MQHHKVAIIGAGAAGIGMAITLKDFGITDVIILEKGTVGHSFKHWPKSTRTITPSFTSNGFGMPDMNAISMDTSPAFTFNEEHISGETYAEYLQVVANHYELNIFENTVVTNISADDAYYTIATTTETYHADYIFVATGDYNFPKKPFKYGIHYSEIEDFDNFNKGQYVVIGGNESGFDAAYQLAKNGSDIALYTSTTGLNDPDADPSVRLSPYTRQRLGNVIKQGARIEMNVHYTVKDIDFNNGQYHISFDSGQSVHTPHEPILATGFDATKNPIVQQLFVTTNQDIKLTTHDESTRYPNIFMIGATVENDNAKLCYIYKFRARFAVLAHLLTQREGLPAKQEVIENYQKNQMYLDDYSCCEVSCTCLEHHHHHH,soluble
24,MQIALAPMEGLVDEILRDVLTRVGGIDWCVTEFIRITDRLLPATAFHKLAPELRDGSRTRAGTPMRVQLLGSDPACLADNAAFACELGAPVIDLNFGCPAKTVNRSRGGAVLLKEPELMHDIVAAVRRAVPSEIAVTSKMRLGYDSPDGALDCARALADGGSAHVVVHARTKVDGYRPPAHWEWVARVAEAVRVPVFANGEVWTLDDYLRCREVSGVEDIMLGRGLVSRPGLARQIAAWRDGGEIREMPWSELLPLLRDFWLQARRKLAPRYAPGRLKQWLGMLTRTYPEAVELFARIRRESDCETIDR,not soluble
